Measured values published in paper PMC101403.

How the values were obtained:
Test in all cases: purified protein
Conditions in all cases: Mg2+ ([…] MgCl2)
purified protein [1] = substrate: CC(=O)SCCNC(=O)CCNC(=O)[C@H](O)C(C)(C)COP(=O)(O)OP(=O)(O)OC[C@H]1O[C@@H](n2cnc3c(N)ncnc32)[C@H](O)[C@@H]1OP(=O)(O)O
purified protein [2] = substrate: CC(C)(COP(=O)(O)OP(=O)(O)OC[C@H]1O[C@@H](n2cnc3c(N)ncnc32)[C@H](O)[C@@H]1OP(=O)(O)O)[C@@H](O)C(=O)NCCC(=O)NCCS
purified protein [3] = substrate: CC(C)(COP(=O)(O)OP(=O)(O)OC[C@H]1O[C@@H](n2cnc3c(N)ncnc32)[C@H](O)[C@@H]1OP(=O)(O)O)[C@@H](O)C(=O)NCCC(=O)NCCSC(=O)CCC(=O)O
purified protein [4] = substrate: CC(O)(CC(=O)O)CC(=O)SCCNC(=O)CCNC(=O)[C@H](O)C(C)(C)COP(=O)(O)OP(=O)(O)OC[C@H]1O[C@@H](n2cnc3c(N)ncnc32)[C@H](O)[C@@H]1OP(=O)(O)O

B1: Y87G2A.14 Nudix hydrolase (coenzyme A diphosphatase) (Caenorhabditis elegans) (protein)
chain: MKCVVSRADDLKRMLDLSDVPTKSQGEQDAGVLILLHDDGSEKLKVLLCVRSRQLRRHPGEVCFPGGMMDDEDGQNVRRTAIREAYEEVGVNENDDYLVLGNLPAFRARFGVLIHPTVALLRRPPTFVLSIGEVESIFWIPLSQFLEDTHHSTFLIDEFYMVHVFQFDEYPTTYGVTALMCIVVAIGLLGKLPNFNLMGNLTISDMLDKHLDSIEIIRHVYEFASRKFEPKSKI
Km (purified protein [1]): 230 µM | kcat (purified protein [1]): 11.8 s⁻¹ | kcat/Km (purified protein [1]): 51000 M⁻¹ s⁻¹ | Km (purified protein [2]): 220 µM | kcat (purified protein [2]): 13.8 s⁻¹ | kcat/Km (purified protein [2]): 64000 M⁻¹ s⁻¹ | Km (purified protein [3]): 240 µM | kcat (purified protein [3]): 12.7 s⁻¹ | kcat/Km (purified protein [3]): 53000 M⁻¹ s⁻¹ | Km (purified protein [4]): 200 µM | kcat (purified protein [4]): 10.5 s⁻¹ | kcat/Km (purified protein [4]): 54000 M⁻¹ s⁻¹
